In patent publication US20210253718A1 (MODMAB THERAPEUTICS, published 2021) one finds binding result and median fluorescence data, which are given here for six molecules.

T1: FZD3 cysteine-rich domain (CRD), MYC-tagged and GPI-anchored on CHO cells (human, UniProt Q9NPG1 24-150, GPI anchor)
T1 construct: domain: cysteine-rich domain (CRD); also called FZD3 CRD; CHO-myc-FZDGPI; not shown: MYC tag and GPI anchor signal
T1 sequence (looked up): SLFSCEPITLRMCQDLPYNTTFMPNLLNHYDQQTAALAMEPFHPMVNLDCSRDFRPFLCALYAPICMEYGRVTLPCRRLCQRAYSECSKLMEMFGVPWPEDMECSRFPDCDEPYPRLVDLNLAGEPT

T2: FZD9 cysteine-rich domain (CRD), MYC-tagged and GPI-anchored on CHO cells (human, UniProt O00144 35-161, GPI anchor)
T2 construct: also called FZD9 CRD; CHO-myc-FZDGPI; not shown: MYC tag and GPI anchor signal
T2 sequence: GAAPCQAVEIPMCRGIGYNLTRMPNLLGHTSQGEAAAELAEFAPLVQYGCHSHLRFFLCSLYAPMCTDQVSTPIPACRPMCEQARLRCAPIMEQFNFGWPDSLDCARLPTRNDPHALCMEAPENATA

T3: FZD6 cysteine-rich domain (CRD), MYC-tagged and GPI-anchored on CHO cells (human, UniProt O60353 20-146, GPI anchor)
T3 construct: also called FZD6 CRD; CHO-myc-FZDGPI; not shown: MYC tag and GPI anchor signal
T3 sequence: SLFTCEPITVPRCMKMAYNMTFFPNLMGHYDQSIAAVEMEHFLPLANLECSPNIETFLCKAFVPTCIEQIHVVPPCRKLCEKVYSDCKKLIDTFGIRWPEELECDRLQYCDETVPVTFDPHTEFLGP

T4: FZD10 cysteine-rich domain (CRD), MYC-tagged and GPI-anchored on CHO cells (human, UniProt Q9ULW2 30-156, GPI anchor)
T4 construct: also called FZD10 CRD; CHO-myc-FZDGPI; not shown: MYC tag and GPI anchor signal
T4 sequence: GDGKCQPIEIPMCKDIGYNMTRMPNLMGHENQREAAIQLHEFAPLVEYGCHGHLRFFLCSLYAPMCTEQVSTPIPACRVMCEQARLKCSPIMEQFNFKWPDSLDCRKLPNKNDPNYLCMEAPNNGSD

T5: FZD4 cysteine-rich domain (CRD), MYC-tagged and GPI-anchored on CHO cells (human, UniProt Q9ULV1 42-167, GPI anchor)
T5 construct: also called FZD4 CRD; CHO-myc-FZDGPI; not shown: MYC tag and GPI anchor signal
T5 sequence: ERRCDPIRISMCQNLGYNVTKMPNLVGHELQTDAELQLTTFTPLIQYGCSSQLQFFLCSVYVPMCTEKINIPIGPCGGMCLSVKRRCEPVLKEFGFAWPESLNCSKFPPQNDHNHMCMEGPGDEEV

T6: FZD8 cysteine-rich domain (CRD), MYC-tagged and GPI-anchored on CHO cells (human, UniProt Q498S8 31-155 (rat entry), GPI anchor)
T6 construct: also called FZD8 CRD; CHO-myc-FZDGPI; not shown: MYC tag and GPI anchor signal
T6 sequence: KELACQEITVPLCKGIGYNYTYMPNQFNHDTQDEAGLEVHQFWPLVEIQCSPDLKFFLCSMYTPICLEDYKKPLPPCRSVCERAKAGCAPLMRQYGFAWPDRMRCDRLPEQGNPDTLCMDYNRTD

T7: FZD5 cysteine-rich domain (CRD), MYC-tagged and GPI-anchored on CHO cells (human, UniProt Q13467 29-156, GPI anchor)
T7 construct: also called FZD5 CRD; CHO-myc-FZDGPI; not shown: MYC tag and GPI anchor signal
T7 sequence: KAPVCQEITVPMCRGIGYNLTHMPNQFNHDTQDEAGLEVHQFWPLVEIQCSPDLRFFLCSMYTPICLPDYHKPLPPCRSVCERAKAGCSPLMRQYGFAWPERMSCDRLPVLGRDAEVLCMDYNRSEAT

B1: Fab-2904 (Fab, V domains shown)
VH: EVQLVESGGGLVQPGGSLRLSCAASGFNIYSYSMHWVRQAPGKGLEWVAYISSSYGYTSYADSVKGRFTISADTSKNTAYLQMNSLRAEDTAVYYCARSWYAWAMDYWGQGTLVTVSS
VL: DIQMTQSPSSLSASVGDRVTITCRASQSVSSAVAWYQQKPGKAPKLLIYSASSLYSGVPSRFSGSRSGTDFTLTISSLQPEDFATYYCQQSSYSLITFGQGTKVEIK
notes: Fab; also called Fv-2904
B2: Fab-2933 (Fab, V domains shown)
VH: EVQLVESGGGLVQPGGSLRLSCAASGFNLYSSYMHWVRQAPGKGLEWVASIYSSYGYTSYADSVKGRFTISADTSKNTAYLQMNSLRAEDTAVYYCARTVRGSKKPYFSGWAMDYWGQGTLVTVSS
VL: DIQMTQSPSSLSASVGDRVTITCRASQSVSSAVAWYQQKPGKAPKLLIYSASSLYSGVPSRFSGSRSGTDFTLTISSLQPEDFATYYCQQFWWYASWLFTFGQGTKVEIK
notes: Fab; also called Fv-2933
B3: Fab-2907 (Fab, V domains shown)
VH: EVQLVESGGGLVQPGGSLRLSCAASGFNIYSSYMHWVRQAPGKGLEWVASISSYSGSTYYADSVKGRFTISADTSKNTAYLQMNSLRAEDTAVYYCARSSWGAYIVSYGFDYWGQGTLVTVSS
VL: DIQMTQSPSSLSASVGDRVTITCRASQSVSSAVAWYQQKPGKAPKLLIYSASSLYSGVPSRFSGSRSGTDFTLTISSLQPEDFATYYCQQVGYWWGLITFGQGTKVEIK
notes: Fab; also called Fv-2907
B4: Fab-2930 (Fab, V domains shown)
VH: EVQLVESGGGLVQPGGSLRLSCAASGFNLSYYYIHWVRQAPGKGLEWVASIYPYSGSTSYADSVKGRFTISADTSKNTAYLQMNSLRAEDTAVYYCARGALDYWGQGTLVTVSS
VL: DIQMTQSPSSLSASVGDRVTITCRASQSVSSAVAWYQQKPGKAPKLLIYSASSLYSGVPSRFSGSRSGTDFTLTISSLQPEDFATYYCQQWYGPYLITFGQGTKVEIK
notes: Fab; also called Fv-2930
B5: Fab-2899 (Fab, V domains shown)
VH: B4 VH with S30Y, I34M, Y54S
VL: B3 VL with V91W, G92Y, Y93S, W94S, W95Y
notes: Fab; also called Fv-2899
B6: Fab-2912 (Fab, V domains shown)
VH: B2 VH with L29I, Y30S, S31Y, M34I, Y52S, Y55S
VL: B4 VL with W91F, G93F
notes: Fab; also called Fv-2912

Where a chain is given by its changes, count along the chain named.

The first experiment deals with T1, FZD3 cysteine-rich domain (CRD), …. Put plainly: immunofluorescence, CHO-CRD cells.
Regarding B1, the binding result is listed as “no binding”.
Same read-out and setting: in the case of B2 it was “no binding”; in that of B3, “no binding”.
For B4, the binding result is “no binding”.
The same measure, in the same setting: to B5 belongs “no binding”; to B6, “no binding”.

A further experiment deals with T2, FZD9 cysteine-rich domain (CRD), …. Put plainly: immunofluorescence, CHO-CRD cells.
Consider B1, for which the binding result is recorded as “no binding”.
B3: the binding result is “no binding”.
B4: the binding result is given as “no binding”.
In the case of B5, the binding result is reported as “no binding”.
On the same count and under the same terms, to B6 belongs “no binding”.

For a further experiment, the target named is T3, FZD6 cysteine-rich domain (CRD), …. Put plainly: immunofluorescence, CHO-CRD cells.
Consider B1, for which the binding result is reported as “no binding”.
Still for that read-out and setting: to B2 belongs “no binding”; to B3, “no binding”.
Consider B4, for which the binding result is “no binding”.
Turning to B5, the binding result is “no binding”.
B6: the binding result was “no binding”.

In another experiment the target is T4, FZD10 cysteine-rich domain (CRD), …. The experiment is described as follows: immunofluorescence, CHO-CRD cells.
In the case of B1, the binding result is given as “no binding”.
Take B3: the binding result is on record as “no binding”.
The same measure, in the same setting: in the case of B4 it was “no binding”; in that of B5, “no binding”.
On the same count and under the same terms, in the case of B6 it was “no binding”.

A further experiment concerns the target T5, FZD4 cysteine-rich domain (CRD), …. Put plainly: immunofluorescence, CHO-CRD cells.
For B3, the binding result is reported as “no binding”.

Another experiment concerns the target T1, FZD3 cysteine-rich domain (CRD), …. Put plainly: flow cytometry, CHO-CRD cells.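 Note: flow cytometry of Fab binding to CHO cells overexpressing a Frizzled CRD, with binding defined as median fluorescence over twice that of CHO cells lacking any Frizzled CRD.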 For orientation: Flow cytometry measures light scatter and fluorescence of single cells or particles in a stream.
Procedure: (§1) Binding was measured via flow cytometry analysis of CHO cells overexpressing CRD of FZD1, FZD2, FZD3, FZD4, FZD5, FZD6, FZD7, FZD8, FZD9 or FZD10. Median fluorescence values are shown.
Turning to B1, the median fluorescence is 4.14.
In turn, B2 yielded a median fluorescence of 4.1.
The same measure, in the same setting: to B3 belongs 3.79; to B4, 6.26.
B5 showed a median fluorescence of 7.91.
On the same count and under the same terms, to B6 belongs 4.61.

The target of a further experiment is T2, FZD9 cysteine-rich domain (CRD), …. The experiment is described as follows: flow cytometry, CHO-CRD cells.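 Note: flow cytometry of Fab binding to CHO cells overexpressing a Frizzled CRD, with binding defined as median fluorescence over twice that of CHO cells lacking any Frizzled CRD.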
Procedure: as §1
B1 came in with a median fluorescence of 3.37.
As for B2, the median fluorescence turned out to be 143.
As for B3, the median fluorescence worked out at 2.86.
On the same count and under the same terms, to B4 belongs 4.87; to B5, 4.7; to B6, 4.45.

For a further experiment, the target named is T6, FZD8 cysteine-rich domain (CRD), …. Put plainly: flow cytometry, CHO-CRD cells.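 Note: flow cytometry of Fab binding to CHO cells overexpressing a Frizzled CRD, with binding defined as median fluorescence over twice that of CHO cells lacking any Frizzled CRD.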
Procedure: as §1
The molecule B1 had a median fluorescence of 10.1.
Same read-out and setting: to B2 belongs 26.7; to B4, 13.8.
As to B5, the median fluorescence was found to be 12.8.
The same measure, in the same setting: to B6 belongs 7.57.

The next experiment has as its target T3, FZD6 cysteine-rich domain (CRD), …. The experiment is described as follows: flow cytometry, CHO-CRD cells.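 Note: flow cytometry of Fab binding to CHO cells overexpressing a Frizzled CRD, with binding defined as median fluorescence over twice that of CHO cells lacking any Frizzled CRD.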
Procedure: as §1
In the case of B1, the median fluorescence came out at 3.59.
On the same count and under the same terms, to B2 belongs 4.1; to B3, 3.06.
Still for that read-out and setting: in the case of B4 it was 3.79; in that of B5, 4.37.
The same measure, in the same setting: to B6 belongs 4.1.

The next experiment deals with FZD2 cysteine-rich domain (CRD), MYC-tagged and GPI-anchored on CHO cells (human, UniProt Q14332 35-161). The experiment is described as follows: flow cytometry, CHO-CRD cells.
Procedure: as §1
As for B1, the median fluorescence worked out at 12.
The molecule B5 had a median fluorescence of 20.7.
Consider B6, for which the median fluorescence came out at 19.8.

A further experiment deals with T7, FZD5 cysteine-rich domain (CRD), …. The experiment is described as follows: flow cytometry, CHO-CRD cells.
Procedure: as §1
The molecule B1 displayed a median fluorescence of 29.7.
Regarding B2, the median fluorescence was 34.9.
On the same count and under the same terms, in the case of B4 it was 33.1; in that of B5, 33.7.
B6 registered a median fluorescence of 32.2.

The next experiment has as its target T4, FZD10 cysteine-rich domain (CRD), …. Put plainly: flow cytometry, CHO-CRD cells.
Procedure: as §1
B1 registered a median fluorescence of 3.43.
On to B2, for which the median fluorescence was determined as 21.1.
Still for that read-out and setting: in the case of B3 it was 2.76; in that of B4, 4.37.
For B5, the median fluorescence was 5.
Same read-out and setting: in the case of B6 it was 3.82.

A further experiment deals with FZD7 cysteine-rich domain (CRD), MYC-tagged and GPI-anchored on CHO cells (human, UniProt O75084 45-169). Put plainly: flow cytometry, CHO-CRD cells.
Procedure: as §1
Turning to B1, the median fluorescence was determined as 42.9.
For B2, the median fluorescence turned out to be 8.74.
The molecule B4 had a median fluorescence of 22.2.
The same measure, in the same setting: in the case of B5 it was 54.2; in that of B6, 56.7.

A further experiment concerns the target FZD1 cysteine-rich domain (CRD), MYC-tagged and GPI-anchored on CHO cells (human). Put plainly: flow cytometry, CHO-CRD cells.
Procedure: as §1
B1 had a median fluorescence of 15.5.
On the same count and under the same terms, to B2 belongs 14.5; to B4, 30.1.
The same measure, in the same setting: to B5 belongs 19.5; to B6, 41.

The target of the next experiment is T5, FZD4 cysteine-rich domain (CRD), …. The experiment is described as follows: flow cytometry, CHO-CRD cells.
Procedure: as §1
B2 had a median fluorescence of 46.4.
For B3, the median fluorescence worked out at 3.96.
Turning to B6, the median fluorescence is 47.
